In patent US10421817 (BEIJING MABWORKS BIOTECH, dated 2019):

target: T1, human Claudin 18.1 (human, UniProt P56856 1-261); experiment: FACS on HEK293A/hClaudin 18.1 cells
T1 construct: Overexpressed on HEK293A cells by lentivirus
T1 sequence (P56856 whole entry): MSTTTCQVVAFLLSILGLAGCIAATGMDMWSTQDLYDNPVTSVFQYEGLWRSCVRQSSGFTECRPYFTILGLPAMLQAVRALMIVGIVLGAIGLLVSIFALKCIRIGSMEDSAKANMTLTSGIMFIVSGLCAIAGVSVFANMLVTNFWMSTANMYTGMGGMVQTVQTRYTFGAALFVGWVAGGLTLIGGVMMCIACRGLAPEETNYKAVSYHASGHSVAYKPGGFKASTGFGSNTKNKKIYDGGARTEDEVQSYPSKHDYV

Row | Binder | binding result
1 | 18F2-30-VH5VL0 (antibody, human IgG1, kappa, V domains shown, Humanized, human IgG1/kappa constant regions) VH: QVQLVQSGAEVKKPGASVKVSCKASGYTFTSFWLNWVRQRPGQGLEWIGNIYPSTSYTVYNQKFKDRVTLTVDKSTSTAYMELSSLRSEDTAVYYCTRTWRGNSFDYWGQGTTVTVSS VL: DIVMTQSPDSLAVSLGERATINCKSSQSLLNSGNQKNYVTWYQQKPGQPPKLLIYWGSTRSTGVPDRFSGSGSGTDFTLTISSLQAEDVAVYYCQNDYTYPFTFGQGTKLEIKR | no binding
2 | 18F2-5VH4VL0 (antibody, human IgG1, kappa, V domains shown, Humanized, human IgG1/kappa constant regions) VH: QVQLVQSGAEVKKPGASVKVSCKASGYTFTSFWLNWVRQRPGQGLEWIGNIYPSTSYTVYNQKFKDRVTLTVDKSTSTVYMELSSLRSEDTAVYYCARTWRGNSFDLWGQGTTVTVSS VL: DIVMTQSPDSLAVSLGERATINCKSNQSLLNSGNQKNYVTWYQQKPGQPPKLLIYWGSTRVRGVPDRFSGSGSGTDFTLTISSLQAEDVAVYYCQNDYTYPFTFGQGTKLEIKR | no binding
3 | 18F2-30-VH6VL3 (antibody, human IgG1, kappa, Humanized, human IgG1/kappa constant regions) heavy: not shown light: DIVMTQSPSSLTVSLGEKATISCKSSQSLLNSGNQKNYVTWYQQKPGQPPKLLIYWGSTRSTGVPDRFSGSGSGTDFTLTISSLQAEDLAVYYCQNDYTYPFTFGSGTKLEIKRTVAAPSVFIFPPSDEQLKSGTASVVCLLNNFYPREAKVQWKVDNALQSGNSQESVTEQDSKDSTYSLSSTLTLSKADYEKHKVYACEVTHQGLSSPVTKSFNRGEC | no binding
4 | 18F2-30-VH3VL0 (antibody, human IgG1, kappa, V domains shown, Humanized, human IgG1/kappa constant regions) VH: QVQLVQSGAEVKKPGASVKVSCKASGYTFTSFWLNWVRQAPGQGLEWIGNIYPSTSYTVYNQKFKDRVTLTVDTSTSTVYMELSSLRSEDTAVYYCARTWRGNSFDYWGQGTTVTVSS VL: DIVMTQSPDSLAVSLGERATINCKSSQSLLNSGNQKNYVTWYQQKPGQPPKLLIYWGSTRSTGVPDRFSGSGSGTDFTLTISSLQAEDVAVYYCQNDYTYPFTFGQGTKLEIKR | no binding
5 | 18F2-5VH0VL0 (antibody, human IgG1, kappa, V domains shown, Humanized, human IgG1/kappa constant regions; also called 18F2-SVH0VL0) VH: QVQLVQSGAEVKKPGASVKVSCKASGYTFTSFWLNWVRQAPGQGLEWMGNIYPSTSYTVYNQKFKDRVTMTRDTSTSTVYMELSSLRSEDTAVYYCARTWRGNSFDLWGQGTTVTVSS VL: DIVMTQSPDSLAVSLGERATINCKSNQSLLNSGNQKNYVTWYQQKPGQPPKLLIYWGSTRVRGVPDRFSGSGSGTDFTLTISSLQAEDVAVYYCQNDYTYPFTFGQGTKLEIKR | no binding
6 | 18F2-5VH6VL3 (antibody, human IgG1, kappa, Humanized, human IgG1/kappa constant regions) heavy: not shown light: DIVMTQSPSSLTVSLGEKATISCKSNQSLLNSGNQKNYVTWYQQKPGQPPKLLIYWGSTRVRGVPDRFSGSGSGTDFTLTISSLQAEDLAVYYCQNDYTYPFTFGSGTKLEIKRTVAAPSVFIFPPSDEQLKSGTASVVCLLNNFYPREAKVQWKVDNALQSGNSQESVTEQDSKDSTYSLSSTLTLSKADYEKHKVYACEVTHQGLSSPVTKSFNRGEC | no binding
7 | 18F2-35VH6VL0 (antibody, human IgG1, kappa, V domains shown, Humanized, human IgG1/kappa constant regions) VH: QVQLVQSGAEVKKPGASVKVSCKASGYTFTSFWLNWVRQRPGQGLEWIGNIYPSTSYTIYNQKFKDRVTLTVDKSSSTAYMELSSLTSEDTAVYYCTRTWRGNSFDYWGQGTTVTVSS VL: DIVMTQSPDSLAVSLGERATINCKSSQSLLNSGNQKNYLTWYQQKPGQPPKLLIYWGSTRVRGVPDRFSGSGSGTDFTLTISSLQAEDVAVYYCQNDYTYPFTFGQGTKLEIKR | no binding
8 | 18F2-5VH7VL3 (antibody, human IgG1, kappa, Humanized, human IgG1/kappa constant regions) heavy: not shown light: DIVMTQSPSSLTVSLGEKATISCKSNQSLLNSGNQKNYVTWYQQKPGQPPKLLIYWGSTRVRGVPDRFSGSGSGTDFTLTISSLQAEDLAVYYCQNDYTYPFTFGSGTKLEIKRTVAAPSVFIFPPSDEQLKSGTASVVCLLNNFYPREAKVQWKVDNALQSGNSQESVTEQDSKDSTYSLSSTLTLSKADYEKHKVYACEVTHQGLSSPVTKSFNRGEC | no binding
9 | 18F2-30-VH2VL0 (antibody, human IgG1, kappa, V domains shown, Humanized, human IgG1/kappa constant regions) VH: QVQLVQSGAEVKKPGASVKVSCKASGYTFTSFWLNWVRQAPGQGLEWIGNIYPSTSYTVYNQKFKDRVTLTVDKSTSTVYMELSSLRSEDTAVYYCARTWRGNSFDYWGQGTTVTVSS VL: DIVMTQSPDSLAVSLGERATINCKSSQSLLNSGNQKNYVTWYQQKPGQPPKLLIYWGSTRSTGVPDRFSGSGSGTDFTLTISSLQAEDVAVYYCQNDYTYPFTFGQGTKLEIKR | no binding
10 | 18F2-30-VH7VL0 (antibody, human IgG1, kappa, V domains shown, Humanized, human IgG1/kappa constant regions) VH: QVQLVQSGAEVKKPGASVKVSCKASGYTFTSFWLNWVKQRPGQGLEWIGNIYPSTSYTVYNQKFKDKVTLTVDKSTSTAYMELSSLRSEDTAVYYCTRTWRGNSFDYWGQGTTVTVSS VL: DIVMTQSPDSLAVSLGERATINCKSSQSLLNSGNQKNYVTWYQQKPGQPPKLLIYWGSTRSTGVPDRFSGSGSGTDFTLTISSLQAEDVAVYYCQNDYTYPFTFGQGTKLEIKR | no binding
11 | 18F2-30-VH6VL0 (antibody, human IgG1, kappa, V domains shown, Humanized, human IgG1/kappa constant regions) VH: QVQLVQSGAEVKKPGASVKVSCKASGYTFTSFWLNWVRQRPGQGLEWIGNIYPSTSYTVYNQKFKDRVTLTVDKSSSTAYMELSSLTSEDTAVYYCTRTWRGNSFDYWGQGTTVTVSS VL: DIVMTQSPDSLAVSLGERATINCKSSQSLLNSGNQKNYVTWYQQKPGQPPKLLIYWGSTRSTGVPDRFSGSGSGTDFTLTISSLQAEDVAVYYCQNDYTYPFTFGQGTKLEIKR | no binding
12 | 18F2-35VH3VL0 (antibody, human IgG1, kappa, V domains shown, Humanized, human IgG1/kappa constant regions) VH: QVQLVQSGAEVKKPGASVKVSCKASGYTFTSFWLNWVRQAPGQGLEWIGNIYPSTSYTIYNQKFKDRVTLTVDTSTSTVYMELSSLRSEDTAVYYCARTWRGNSFDYWGQGTTVTVSS VL: DIVMTQSPDSLAVSLGERATINCKSSQSLLNSGNQKNYLTWYQQKPGQPPKLLIYWGSTRVRGVPDRFSGSGSGTDFTLTISSLQAEDVAVYYCQNDYTYPFTFGQGTKLEIKR | no binding
13 | 18F2-5VH6VL2 (antibody, human IgG1, kappa, Humanized, human IgG1/kappa constant regions) heavy: not shown light: DIVMTQSPSSLTVSLGEKATINCKSNQSLLNSGNQKNYVTWYQQKPGQPPKLLIYWGSTRVRGVPDRFSGSGSGTDFTLTISSLQAEDLAVYYCQNDYTYPFTFGQGTKLEIKRTVAAPSVFIFPPSDEQLKSGTASVVCLLNNFYPREAKVQWKVDNALQSGNSQESVTEQDSKDSTYSLSSTLTLSKADYEKHKVYACEVTHQGLSSPVTKSFNRGEC | no binding
14 | 18F2-5VH7VL2 (antibody, human IgG1, kappa, Humanized, human IgG1/kappa constant regions) heavy: not shown light: DIVMTQSPSSLTVSLGEKATINCKSNQSLLNSGNQKNYVTWYQQKPGQPPKLLIYWGSTRVRGVPDRFSGSGSGTDFTLTISSLQAEDLAVYYCQNDYTYPFTFGQGTKLEIKRTVAAPSVFIFPPSDEQLKSGTASVVCLLNNFYPREAKVQWKVDNALQSGNSQESVTEQDSKDSTYSLSSTLTLSKADYEKHKVYACEVTHQGLSSPVTKSFNRGEC | no binding
15 | 18F2-5VH5VL0 (antibody, human IgG1, kappa, V domains shown, Humanized, human IgG1/kappa constant regions) VH: QVQLVQSGAEVKKPGASVKVSCKASGYTFTSFWLNWVRQRPGQGLEWIGNIYPSTSYTVYNQKFKDRVTLTVDKSTSTAYMELSSLRSEDTAVYYCTRTWRGNSFDLWGQGTTVTVSS VL: DIVMTQSPDSLAVSLGERATINCKSNQSLLNSGNQKNYVTWYQQKPGQPPKLLIYWGSTRVRGVPDRFSGSGSGTDFTLTISSLQAEDVAVYYCQNDYTYPFTFGQGTKLEIKR | no binding
16 | 18F2-35VH5VL0 (antibody, human IgG1, kappa, V domains shown, Humanized, human IgG1/kappa constant regions) VH: QVQLVQSGAEVKKPGASVKVSCKASGYTFTSFWLNWVRQRPGQGLEWIGNIYPSTSYTIYNQKFKDRVTLTVDKSTSTAYMELSSLRSEDTAVYYCTRTWRGNSFDYWGQGTTVTVSS VL: DIVMTQSPDSLAVSLGERATINCKSSQSLLNSGNQKNYLTWYQQKPGQPPKLLIYWGSTRVRGVPDRFSGSGSGTDFTLTISSLQAEDVAVYYCQNDYTYPFTFGQGTKLEIKR | no binding
17 | 18F2-30-VH4VL0 (antibody, human IgG1, kappa, V domains shown, Humanized, human IgG1/kappa constant regions) VH: QVQLVQSGAEVKKPGASVKVSCKASGYTFTSFWLNWVRQRPGQGLEWIGNIYPSTSYTVYNQKFKDRVTLTVDKSTSTVYMELSSLRSEDTAVYYCARTWRGNSFDYWGQGTTVTVSS VL: DIVMTQSPDSLAVSLGERATINCKSSQSLLNSGNQKNYVTWYQQKPGQPPKLLIYWGSTRSTGVPDRFSGSGSGTDFTLTISSLQAEDVAVYYCQNDYTYPFTFGQGTKLEIKR | no binding
18 | 18F2-35VH4VL0 (antibody, human IgG1, kappa, V domains shown, Humanized, human IgG1/kappa constant regions) VH: QVQLVQSGAEVKKPGASVKVSCKASGYTFTSFWLNWVRQRPGQGLEWIGNIYPSTSYTIYNQKFKDRVTLTVDKSTSTVYMELSSLRSEDTAVYYCARTWRGNSFDYWGQGTTVTVSS VL: DIVMTQSPDSLAVSLGERATINCKSSQSLLNSGNQKNYLTWYQQKPGQPPKLLIYWGSTRVRGVPDRFSGSGSGTDFTLTISSLQAEDVAVYYCQNDYTYPFTFGQGTKLEIKR | no binding
19 | 18F2-5VH6VL0 (antibody, human IgG1, kappa, V domains shown, Humanized, human IgG1/kappa constant regions) VH: QVQLVQSGAEVKKPGASVKVSCKASGYTFTSFWLNWVRQRPGQGLEWIGNIYPSTSYTVYNQKFKDRVTLTVDKSSSTAYMELSSLTSEDTAVYYCTRTWRGNSFDLWGQGTTVTVSS VL: DIVMTQSPDSLAVSLGERATINCKSNQSLLNSGNQKNYVTWYQQKPGQPPKLLIYWGSTRVRGVPDRFSGSGSGTDFTLTISSLQAEDVAVYYCQNDYTYPFTFGQGTKLEIKR | no binding
20 | 18F2-35VH2VL0 (antibody, human IgG1, kappa, V domains shown, Humanized, human IgG1/kappa constant regions) VH: QVQLVQSGAEVKKPGASVKVSCKASGYTFTSFWLNWVRQAPGQGLEWIGNIYPSTSYTIYNQKFKDRVTLTVDKSTSTVYMELSSLRSEDTAVYYCARTWRGNSFDYWGQGTTVTVSS VL: DIVMTQSPDSLAVSLGERATINCKSSQSLLNSGNQKNYLTWYQQKPGQPPKLLIYWGSTRVRGVPDRFSGSGSGTDFTLTISSLQAEDVAVYYCQNDYTYPFTFGQGTKLEIKR | no binding
21 | 18F2-5VH3VL0 (antibody, human IgG1, kappa, V domains shown, Humanized, human IgG1/kappa constant regions) VH: QVQLVQSGAEVKKPGASVKVSCKASGYTFTSFWLNWVRQAPGQGLEWIGNIYPSTSYTVYNQKFKDRVTLTVDTSTSTVYMELSSLRSEDTAVYYCARTWRGNSFDLWGQGTTVTVSS VL: DIVMTQSPDSLAVSLGERATINCKSNQSLLNSGNQKNYVTWYQQKPGQPPKLLIYWGSTRVRGVPDRFSGSGSGTDFTLTISSLQAEDVAVYYCQNDYTYPFTFGQGTKLEIKR | no binding
